# Results as given in patent US10174111 (NATIONAL UNIVERSITY CORPORATION KOCHI UNIVERSITY, dated 2019).
# Residue numbers refer to the chain shown, from its start.
# B1: anti-LSR mouse/chicken chimeric monoclonal antibody #1-25 (antibody, V domains shown)
# VH: AVTLDESGGGLQTPGGALSLVCKASGFDFSSYEMQWVRQAPGKGLEWVTGISGSGSSTRYGSAVKGRATISRDNGQSTVRLQLNNLRAEDTGTYYCARGSTIDAWGHGTEVTVST
# VL: ALTQPASVSANPGETVKITCSGGSSYAGSYYYGWYQQKSPGSAPVTVIYYNDQRPSDIPSRFSGSTSGSTATLTITGVQVEDEAVYICGTYEDSGGVFGAGTTLTV
# notes: also called No. 1-25; anti-LSR antibody 1-25
# B2: anti-LSR mouse/chicken chimeric monoclonal antibody #27-6 (antibody, V domains shown)
# VH: B1 VH with T13M, K23R, V37I, T49A, S54A, S57G, T93I, Y95F, G99S, T101N
# VL: ALTQPASVSANLGGTVKITCSGGGRYAESYYYGWYQQKSPGSTPVTVIYWNDKRPSNIPSRFSGSLSGSTNTLTITGVQVEDEAVYFCGSYEDSRSAFGAGTTLTV
# notes: also called No. 27-6; anti-LSR antibody 27-6
# B3: anti-LSR mouse/chicken chimeric monoclonal antibody #1-43 (antibody, V domains shown)
# VH: B1 VH with K23E, Y32H, T49A, S54A, K65Q, T101L, T112I
# VL: ALTQPASVSANPGETVKITCSGGGSYYGSYYYSWHQQKSPGSAPVTVIYENNQRPSDIPSRFSGSKSGSTATLTITGVQAEDEAVYFCGSYDSSAGLFGAGTTLTV
# notes: also called No. 1-43; anti-LSR antibody 1-43
# B4: anti-LSR mouse/chicken chimeric monoclonal antibody #9-7 (antibody, V domains shown)
# VH: AVTLDESGGGLQTPGGALSLVCKASGFTFSDYQMNWVRQAPSKGLEWVAGINGRSSWTDYGAAVKGRATISRDNGQSTVRLQLNNLRAEDTATYYCARGSSIDAWGHGTEVIVST
# VL: ALTQPASVSANPGETVKITCSGGGSYYGSYYYGWYQQKSPGSAPVTMIYNNNNRPSNIPSRFSGSLSGSTNTLTITGVQADEAVYYCGSIDSNIAGVFGAGTTLTV
# notes: also called anti-LSR antibody 9-7
# B5: anti-LSR mouse/chicken chimeric monoclonal antibody #26-2 (antibody, V domains shown)
# VH: AVTLDESGGGLQTPGGGLSLVCKGSGFTFSNYEMQWVRQAPGKGLEWVAGISGAGSTTRYGSAVQGRATISRDNGQSTVRLQLNNLRAEDTGTYYCARGSNIDGWGHGTEVIVST
# VL: ALTQPSSVSANPGETVKITCSGGGRYAESYYYSWFQQKSPGSAPVTVIYWNDKRPSNIPSRFSGSLSGSTNTLTITGVRAEDEAVYYCGAYEDSSAGFGAGTTLTV
# notes: also called No. 26-2; anti-LSR antibody 26-2
# B6: SEQ ID NO 5 (scFv phage antibody clone, anti-LSR antibody 1-25 sequence) (scFv)
# scFv: AVTLDESGGGLQTPGGALSLVCKASGFDFSSYEMQWVRQAPGKGLEWVTGISGSGSSTRYGSAVKGRATISRDNGQSTVRLQLNNLRAEDTGTYYCARGSTIDAWGHGTEVTVSTGGGGSGGGGSGGGGSDVALTQPASVSANPGETVKITCSGGSSYAGSYYYGWYQQKSPGSAPVTVIYYNDQRPSDIPSRFSGSTSGSTATLTITGVQVEDEAVYICGTYEDSGGVFGAGTTLTV
# notes: the phage coat protein fusion is not described; also called 1-25 scFv
# B7: SEQ ID NO 6 (scFv phage antibody clone, anti-LSR antibody 1-43 sequence) (scFv)
# scFv: AVTLDESGGGLQTPGGALSLVCEASGFDFSSHEMQWVRQAPGKGLEWVAGISGAGSSTRYGSAVQGRATISRDNGQSTVRLQLNNLRAEDTGTYYCARGSLIDAWGHGTEVIVSTGGGGSGGGGSGGGGSDVALTQPASVSANPGETVKITCSGGGSYYGSYYYSWHQQKSPGSAPVTVIYENNQRPSDIPSRFSGSKSGSTATLTITGVQAEDEAVYFCGSYDSSAGLFGAGTTLTV
# notes: the phage coat protein fusion is not described; also called 1-43 scFv
# B8: SEQ ID NO 4 (scFv phage antibody clone, anti-LSR antibody 27-6 sequence) (scFv)
# scFv: AVTLDESGGGLQMPGGALSLVCRASGFDFSSYEMQWIRQAPGKGLEWVAGISGAGSGTRYGSAVKGRATISRDNGQSTVRLQLNNLRAEDTGIYFCARSSNIDAWGHGTEVTVSTGGGGSGGGGSGGGGSDVALTQPASVSANLGGTVKITCSGGGRYAESYYYGWYQQKSPGSTPVTVIYWNDKRPSNIPSRFSGSLSGSTNTLTITGVQVEDEAVYFCGSYEDSRSAFGAGTTLTV
# notes: the phage coat protein fusion is not described; also called 27-6 scFv
# B9: SEQ ID NO 3 (scFv phage antibody clone, anti-LSR antibody 26-2 sequence) (scFv)
# scFv: AVTLDESGGGLQTPGGGLSLVCKGSGFTFSNYEMQWVRQAPGKGLEWVAGISGAGSTTRYGSAVQGRATISRDNGQSTVRLQLNNLRAEDTGTYYCARGSNIDGWGHGTEVIVSTGGGGSGGGGSGGGGSDVALTQPSSVSANPGETVKITCSGGGRYAESYYYSWFQQKSPGSAPVTVIYWNDKRPSNIPSRFSGSLSGSTNTLTITGVRAEDEAVYYCGAYEDSSAGFGAGTTLTV
# notes: the phage coat protein fusion is not described; also called 26-2 scFv
# Biological target: T1, human LSR (lipolysis stimulated lipoprotein receptor) (human, UniProt Q86X29 1-649)
# T1 construct: Stood on human ovarian cancer cells (RMG-I, OVSAHO, JHOS2, OVISE; endogenous) or on SKOV3-L45 cells made to stably express LSR (construct not described); also called hLSR; human LSR protein (NP_991403.1)
# T1 sequence: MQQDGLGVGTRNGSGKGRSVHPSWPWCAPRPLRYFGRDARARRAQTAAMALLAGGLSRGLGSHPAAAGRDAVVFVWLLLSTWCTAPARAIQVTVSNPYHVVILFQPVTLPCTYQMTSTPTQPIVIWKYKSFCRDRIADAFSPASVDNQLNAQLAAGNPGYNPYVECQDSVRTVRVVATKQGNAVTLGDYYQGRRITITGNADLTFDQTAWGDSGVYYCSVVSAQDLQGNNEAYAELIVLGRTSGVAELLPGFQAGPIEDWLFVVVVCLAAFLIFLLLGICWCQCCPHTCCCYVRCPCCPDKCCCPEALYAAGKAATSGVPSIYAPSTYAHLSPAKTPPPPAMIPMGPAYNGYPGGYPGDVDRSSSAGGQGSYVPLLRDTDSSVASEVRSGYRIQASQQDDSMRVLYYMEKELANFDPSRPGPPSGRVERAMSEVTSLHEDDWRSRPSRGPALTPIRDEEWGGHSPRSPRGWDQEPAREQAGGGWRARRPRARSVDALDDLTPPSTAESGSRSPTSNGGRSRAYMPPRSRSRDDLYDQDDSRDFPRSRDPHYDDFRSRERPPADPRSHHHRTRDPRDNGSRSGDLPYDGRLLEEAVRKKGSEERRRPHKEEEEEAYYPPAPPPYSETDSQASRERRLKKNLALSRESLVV
# Experiment: FACS on RMG-I cells stained with various antibody concentrations, goat anti-mouse IgG-FITC, fit in GraphPad Prism
# Experimental: Then, using an anti-LSR antibody (#1-25 or #9-7), immunohistochemical staining for LSR was carried out according to the ABC method. In the ovary serous adenocarcinoma tissue and the endometrial cancer tissue, LSR was highly expressed at the tumor sites. Immunohistochemical Staining Using Normal Frozen Tissue Array FDA standard human tissue microarrays (T6234701-2, Biochain) were immunohistochemically stained using the anti-LSR antibody #1-25. […] Calculation of Binding Constant Various concentration of various anti-LSR antibodies were reacted with RMG-I cells and they were stained using goat anti-mouse IgG-FITC (Southern Biotech, Birmingham, Ala., USA) and analyzed by a FACSCanto® II cytometer (Becton Dickinson). With regard to the fluorescence intensity of FITC, a KD value was analyzed using GraphPad Prism® Software Version 6.0 for Windows (GraphPad Software Inc., San Diego, Calif., USA). When the binding ability of the made LSR antibodies was analyzed by FACS®, antibodies having a high binding ability were obtained. The following analysis was carried out using two kinds of clones having the highest binding ability in them (FIG. 37B). […] Cell Cycle Analysis Ovarian clear cell adenocarcinoma (RMG-I) was seeded into a 6-well plate at 15,000 cells/well and incubated in a CO_2 incubator at 37° C. overnight. The culture supernatant was discarded and 100 µg/ml anti-LSR antibody or mouse IgG2a diluted with RPMI 1640 medium (containing 1% FBS and 1% penicillin-streptomycin) was added at 2 mL/well for each. After 96 hours, cell cycle analysis was carried out using the Cycle Test Plus® DNA Reagent kits (BD Biosciences). Western Blot Ovarian clear cell adenocarcinoma (RMG-I) was seeded into a 6-well plate at 15,000 cells/well and incubated in a CO_2 incubator at 37° C. overnight. The culture supernatant was discarded and 100 µg/ml anti-LSR antibody or mouse IgG2a diluted with RPMI 1640 medium (containing 1% FBS and 1% penicillin-streptomycin) was added at 2 mL/well for each.
row,Binder,Kd
1,B1,2.03 nM
2,B2,4.29 nM
3,B3,24.6 nM
4,B4,2.52 nM
5,B5,4.04 nM

# Biological target: T2, human LSR with a V5/His tag fused to the C-terminal, on the LSR-expressing cell strain (human, UniProt Q86X29 1-649)
# T2 construct: In panning Lot 1 a mammalian LSR-expressing cell strain was used whose construct is not described; also called human LSR-expressing chicken cell strain; not shown: V5/His tag of vector pcDNA3.1-V5/His-TOPO
# T2 sequence: T1 sequence
# Experiment: cell panning of the scFv phage library on the LSR-expressing cell strain, reactivity confirmed by FACS, positive phage clones selected
# Experimental: The scFv phage antibody library was added to a non-LSR-expressing cell strain to carry out absorption operation of nonspecific phages, and then was reacted with a LSR-expressing cell strain. In Lot 1, a mammalian cell strain was used and in Lot 2, cell panning was carried out using the chicken lymphoblast-like cell strain used for immunization. After washing with organic solvent, phages specifically binding to the LSR-expressing cell strain were recovered and then *Escherichia coli* were infected with it. Panning was carried out four times and then the reactivity of the library was confirmed by FACS analysis using the LSR-expressing cell strain. Phages from a library of which the reactivity had most increased were cloned, positive clones were selected, and then the sequences of six types of clones were determined (SEQ ID NOs: 1 to 6 and FIG. 9). For cell panning, a method described in "Giordano et al., Nat Med. 2001 November; 7(11): 1249-53" was followed.
row,Binder,binding result
1,B6,binds
2,B7,binds
3,B8,binds
4,B9,binds
